In patent publication US20060104978A1, “Methods and compositions for PDGF-C activation and inhibition” (LUDWIG INSTITUTE FOR CANCER RESEARCH, priority 2003, published 2006):

Legend:
[1] = target: latent PDGF-CC (Homo sapiens, UniProt Q9NRA1); assay: In vitro cleavage of recombinant latent PDGF-CC with purified tPA; assay type: biochemical; design: His6-tagged recombinant full-length PDGF-CC; made in house; host or cells: Sf9 insect cells, baculovirus; settings: 0.2-20 μg/ml tPA, 4 hours at 37° C., CNBr activated fibrinogen
Description: A cotransfection assay was established to identify serine proteases able to cleave and activate latent PDGF-CC. Expression plasmids encoding the relevant enzymes and full-length PDGF-C were cotransfected into COS-1 cells, and aliquots of the conditioned media from the transfectants were subjected to SDS-PAGE and immunoblotting using antibodies to the growth factor domain of PDGF-C. […] As a specificity control, the ability of tPA and NT to use full-length PDGF-DD as the substrate in the cotransfection assay was analysed. […] One difference in the latter results, as compared with the results from the cotransfection assay, was that purified tPA generated a second intermediate species of 32 kDa using latent PDGF-CC as the substrate. It is possible that this intermediate is the result of digestion by plasmin contamination in the tPA preparation, since the size of the fragment is similar to that of plasmincleaved PDGF-CC previously reported (Li et al, 2000).
Recombinant latent PDGF-CC and PDGF-DD were digested with human tPA in 100 mM Tris-HCl pH 7.5, 0.1% Tween 20, and 0.1 mg/ml CNBr activated fibrinogen (Sigma) for 4 hours at 37° C. using 0.2-20 μg/ml tPA purified from human melanoma cells (T7776, Sigma). The digestions were analyzed by SDS-PAGE under reducing conditions and immunoblotted using affinity-purified antibodies against PDGF-C and PDGF-D, respectively (see above).

[2] = tested on: tPA-deficient fibroblasts; assay: WST-1 growth assay of primary fibroblasts in serum-free medium; assay type: cell-based, mouse; settings: 50 ng/ml added to serum-free culture medium, 24 hours
Procedure: It was observed that primary fibroblasts derived from tPA-deficient mice grew more slowly in culture than fibroblasts derived from wild-type animals, raising the possibility that activation of latent PDGF-CC by tPA generated autocrine and paracrine growth stimulatory loops for primary fibroblasts in culture. To analyze this effect, isolated wild-type and tPA-deficient fibroblasts were serum-starved overnight, and the growth of the cells during the next 24 hours was monitored using an enzyme-based viability assay (see Example 8, Materials and Methods).
To monitor cell growth, both the cell proliferation reagent WST-1 (Roche) and BrdU (Sigma) were used. A total of 0.4×10^4 (WST-1) or 1×10^4 (BrdU) wild-type and tPA-deficient fibroblasts were seeded in triplicate-hexaplicate, and after attachment they were serum-starved overnight. Serum-starved cells were counted (WST-1 seeding control) and alternatively incubated for 24 hours in serum-free medium supplemented with 1 mg/ml BSA, and 50 μM BrdU in the BrdU experiment, in the absence or presence of 50 ng/ml activated PDGF-CC or tPA protein (#116, American Diagnostica Inc.). Upon counting, WST-1 reagent was added and measured according to the manufacturer's protocol using an ELISA reader. […] Quantification of the BrdU-positive cells was performed by counting all cells along the vertical and horizontal diameters of all wells.

[3] = target: T1, PDGFR-α (Homo sapiens, UniProt P16234); assay: PDGFR-α tyrosine phosphorylation in PAE cells stably expressing PDGFR-α; assay type: cell-based; settings: conditioned medium from transfected COS-1 cells applied to PAE cells, 120 min on ice
T1 construct: expressed in transfected cells
Procedure: It was verified that the growth factor domain in PDGF-CC released by tPA-mediated proteolysis is an efficient PDGFR-A ligand. Conditioned media from transfected COS-1 cells were applied onto porcine aortic endothelial (PAE) cells with stable expression of PDGFR-α (FIG. 5A).
To understand the structural requirements for receptor-binding and activation of PDGF-CC, the series of truncated mutants of PDGF-CC generated above were analysed for their ability to activate PDGFR-α in PAE cells. Conditioned media containing the truncated mutants of PDGF-CC were applied onto PAE cells, and the activation of the receptors was monitored by induction of receptor tyrosine phosphorylation (FIG. 6D).
To monitor growth factor-induced tyrosine phosphorylation of PDGFR-α, serum-starved PAE cells stably expressing human PDGFR-α were incubated for 120 min on ice with conditioned medium from COS-1 cells transfected with full-length PDGF-C in the absence or presence of tPA. Alternatively, primary wild-type and tPA-deficient fibroblasts were stimulated with 100 ng/ml activated PDGF-CC protein. The cells were lysed as described previously (Li et al, 2000) and PDGFR-α was immunoprecipitated using a specific antiserum (Eriksson et al, 1992). […] Tyrosinephosphorylated receptors were detected by immunoblotting using an antiphosphotyrosine antibody (PY99, Santa Cruz). […]

T1 sequence (P16234 24-1089): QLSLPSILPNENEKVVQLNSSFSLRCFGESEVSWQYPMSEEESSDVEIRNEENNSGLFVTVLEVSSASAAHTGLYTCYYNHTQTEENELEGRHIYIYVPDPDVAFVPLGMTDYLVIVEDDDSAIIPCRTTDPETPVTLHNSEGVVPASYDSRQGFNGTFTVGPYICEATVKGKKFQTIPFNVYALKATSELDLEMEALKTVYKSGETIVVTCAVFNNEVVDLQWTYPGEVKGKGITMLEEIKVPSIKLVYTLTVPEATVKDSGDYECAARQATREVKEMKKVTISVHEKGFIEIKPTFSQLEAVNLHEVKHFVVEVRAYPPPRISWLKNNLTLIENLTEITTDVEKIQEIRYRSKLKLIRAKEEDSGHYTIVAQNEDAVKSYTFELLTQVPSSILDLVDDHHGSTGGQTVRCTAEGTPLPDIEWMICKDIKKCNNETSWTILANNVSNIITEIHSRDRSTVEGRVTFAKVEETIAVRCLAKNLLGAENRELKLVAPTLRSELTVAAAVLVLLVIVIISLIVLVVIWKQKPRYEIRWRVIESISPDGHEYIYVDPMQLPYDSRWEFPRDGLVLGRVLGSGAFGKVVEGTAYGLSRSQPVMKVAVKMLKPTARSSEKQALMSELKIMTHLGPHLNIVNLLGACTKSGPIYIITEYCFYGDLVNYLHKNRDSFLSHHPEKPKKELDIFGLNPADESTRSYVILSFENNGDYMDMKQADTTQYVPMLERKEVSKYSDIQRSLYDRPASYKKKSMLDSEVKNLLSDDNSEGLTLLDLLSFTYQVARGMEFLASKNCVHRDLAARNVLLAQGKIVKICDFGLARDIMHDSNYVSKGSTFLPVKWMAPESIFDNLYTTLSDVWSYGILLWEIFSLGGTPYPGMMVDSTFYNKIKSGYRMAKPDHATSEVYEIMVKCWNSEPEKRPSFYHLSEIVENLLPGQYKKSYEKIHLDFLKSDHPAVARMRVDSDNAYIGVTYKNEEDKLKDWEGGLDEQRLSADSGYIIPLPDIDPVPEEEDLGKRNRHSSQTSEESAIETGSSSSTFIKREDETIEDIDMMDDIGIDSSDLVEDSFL
latent PDGF-CC, sequence (Q9NRA1 23-345): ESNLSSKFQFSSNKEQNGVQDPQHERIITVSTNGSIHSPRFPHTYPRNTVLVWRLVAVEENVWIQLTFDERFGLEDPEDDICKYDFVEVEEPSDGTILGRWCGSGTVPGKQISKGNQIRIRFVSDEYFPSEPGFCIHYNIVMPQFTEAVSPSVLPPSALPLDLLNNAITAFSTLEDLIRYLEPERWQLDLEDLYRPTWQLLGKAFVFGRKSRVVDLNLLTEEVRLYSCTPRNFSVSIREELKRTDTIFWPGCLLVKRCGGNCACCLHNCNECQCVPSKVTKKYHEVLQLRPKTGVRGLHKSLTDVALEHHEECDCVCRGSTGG

## tPA: tissue plasminogen activator, secreted serine protease; expressed, purified from human melanoma cells or recombinant
[1]
  cleavage of recombinant latent PDGF-CC by purified tPA: PDGF-CC, but not PDGF-DD, is a substrate for tPA
[2]
  rescue of growth of tPA-deficient fibroblasts: allowed the cells to grow similar to the wild-type fibroblasts
[3]
  PDGFR-α activation (receptor tyrosine phosphorylation): failed to induce receptor activation
